Experimental data reported in patent US20220332789A1 (COMBIKINE BIOTECHNOLOGY, published 2022).

Key:
[1] = biological target: IgE (NIP IgE, AbD Serotec) (Homo sapiens (Human)), P01854; assay: cell-based or functional assay
IgE-Fc [2] = biological target: T1, IgE-Fc (UniProt P01854-1 104-428, limits assumed); assay: flow cytometry competition: 1 nM IgE-Fc-A488 binding to FcεRI on RBL SX-38 cells
T1 construct: domain: IgE-Fc; In SPR it was captured on the chip by the α-Cε4 Fab; also called α-Cε4 Fab captured IgE-Fc; IgE-Fc-A488
T1 sequence (P01854 other isoform, or with tags, fused parts or gaps limits assumed): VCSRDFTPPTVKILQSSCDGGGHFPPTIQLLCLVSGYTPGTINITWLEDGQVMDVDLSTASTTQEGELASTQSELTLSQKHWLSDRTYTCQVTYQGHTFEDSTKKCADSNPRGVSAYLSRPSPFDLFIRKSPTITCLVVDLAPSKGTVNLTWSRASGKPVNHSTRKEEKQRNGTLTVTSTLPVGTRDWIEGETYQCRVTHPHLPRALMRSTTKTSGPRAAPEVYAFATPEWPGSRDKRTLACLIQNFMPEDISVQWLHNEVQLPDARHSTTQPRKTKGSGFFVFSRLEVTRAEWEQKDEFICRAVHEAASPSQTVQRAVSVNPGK

IgE-Fc [3] = biological target: T1, IgE-Fc; assay: SPR (Biacore), steady state analysis, one-to-one binding model, derCD23 0-4 µM over α-Cε4 Fab captured IgE-Fc
Protocol: (§1) An α-Cε4 Fab CM5 sensor surface was prepared using amine-coupling and a mock amine-coupled surface was used as a reference-subtraction control. […] Injections were performed at a flow rate of 25 μl·min⁻¹ in a running buffer of 10 mM HEPES, pH 7.4, 150 mM NaCl, 4 mM CaCl₂, and 0.005% (v/v) surfactant P-20 (GE Healthcare).

IgE-Fc [4] = biological target: T1, IgE-Fc; assay: SPR (Biacore T200), monophasic kinetic fitting, derCD23 4000 nM to 31 nM over α-Cε4 Fab captured IgE-Fc, pH 7.4, 4 mM CaCl2
Protocol: as §1

IgE (NIP IgE, AbD Serotec) (Homo sapiens (Human)), P01854, sequence (P01854 other isoform, or with tags, fused parts or gaps limits assumed): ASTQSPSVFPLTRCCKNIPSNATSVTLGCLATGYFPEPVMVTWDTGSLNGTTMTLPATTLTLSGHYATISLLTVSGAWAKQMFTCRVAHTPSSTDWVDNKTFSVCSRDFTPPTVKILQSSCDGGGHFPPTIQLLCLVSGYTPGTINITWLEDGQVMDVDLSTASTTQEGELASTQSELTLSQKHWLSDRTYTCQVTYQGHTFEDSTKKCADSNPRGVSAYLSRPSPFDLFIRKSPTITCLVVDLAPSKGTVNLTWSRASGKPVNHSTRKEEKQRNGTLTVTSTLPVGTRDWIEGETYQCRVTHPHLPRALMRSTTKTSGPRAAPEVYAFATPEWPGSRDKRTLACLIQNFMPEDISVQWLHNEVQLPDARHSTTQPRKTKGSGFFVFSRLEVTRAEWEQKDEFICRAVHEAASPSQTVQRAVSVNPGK

B1: anti-IgE^0 (Fc fusion)
chain: EASDLLERLREEVTKLRMELQVSSGFVCNTCPEKWINFQRKCYYFGKGTKQWVHARYACDDMEGQLVSIHSPEEQDFLTKHASHTGSWIGLRNLDLKGEFIWVDGSHVDYSNWAPGEPTSRSQGEDCVMMRGSGRWNDAFCDRKLGAWVCDRLATCTPPASEGSAESMGPDSRPDPDGRLPTPSAPLHSASISAMVRSPRGPTIKPCPPCKCPAPNLEGGPSVFIFPPKIKDVLMISLSPIVTCVVVDVSEDDPDVQISWFVNNVEVHTAQTQTHREDYNSTLRVVSALPIQHQDWMSGKAFACAVNNKDLPAPIERTISKPKGSVRAPQVYVLPPPEEEMTKKQVTLTCMVTDFMPEDIYVEWTNNGKTELNYKNTEPVLDSDGSYFMYSKLRVEKKNWVERNSYSCSVVHEGLHNHHTTKSFSRTPGK
modifications: here or on the partner: In the flow-cytometry assays the IgE carried AlexaFluor-488 dye at unspecified positions. The letters do not show this.
IC50 of inhibition of IgE mediated degranulation [1]: > 300 nM | maximal efficacy of inhibition of IgE mediated degranulation of basophils [1]: 50%

B2: anti-IgE^0 (Fc fusion)
chain: EASDLLERLREEVTKLRMELQVSSGFVCNTCPEKWINFQRKCYYFGKGTKQWVHARYACDDMEGQLVSIHSPEEQDFLTKHASHTGSWIGLRNLDLKGEFIWVDGSHVDYSNWAPGEPTSRSQGEDCVMMRGSGRWNDAFCDRKLGAWVCDRLATCTPPASEGSAESMGPDSRPDPDGRLPTPSAPLHSASISAMVRSPRGPTIKPCPPCKCPAPNLEGGPSVFIFPPKIKDVLMISLSPIVTCVVVDVSEDDPDVQISWFVNNVEVHTAQTQTHREDYNSTLRVVSALPIQHQDWMSGKAFACAVNNKDLPAPIERTISKPKGSVRAPQVYVLPPPEEEMTKKQVTLTCMVTDFMPEDIYVEWTNNGKTELNYKNTEPVLDSDGSYFMYSKLRVEKKNWVERNSYSCSVVHEGLHNHHTTKSFSRTPGK
notes: also called biologic anti-IgE^0
IC50 (read off the curve) (IgE-Fc [2]): ~30 nM

B3: anti-IgE^4 (Fc fusion)
chain: EASDLLERLREEVTKLRMELQVSSGFVCNTCPEKWINFQRKCYYFGKGTKQWVHARYACDDMEGQLVSIHSPEEQDFLTKHASHTGSWIGLRNLDLKGEFIWVDGSHVDYSNWAPGEPTSRSQGEDCVMMRGSGRWNDAFCDRKLGAWVCDRLATCTPPASEGSAESMGPDSRPDPDGRLPTPSAPLHSGGGGSGGGGSGGGGSGGGGSASISAMVRSPRGPTIKPCPPCKCPAPNLEGGPSVFIFPPKIKDVLMISLSPIVTCVVVDVSEDDPDVQISWFVNNVEVHTAQTQTHREDYNSTLRVVSALPIQHQDWMSGKAFACAVNNKDLPAPIERTISKPKGSVRAPQVYVLPPPEEEMTKKQVTLTCMVTDFMPEDIYVEWTNNGKTELNYKNTEPVLDSDGSYFMYSKLRVEKKNWVERNSYSCSVVHEGLHNHHTTKSFSRTPGK
modifications: here or on the partner: In the flow-cytometry assays the IgE carried AlexaFluor-488 dye at unspecified positions. The letters do not show this.
IC50 of inhibition of IgE mediated degranulation [1]: 10 to 30 nM | efficacy of inhibition of IgE mediated degranulation of basophils [1]: 100%

B4: anti-IgE^4 (Fc fusion)
chain: EASDLLERLREEVTKLRMELQVSSGFVCNTCPEKWINFQRKCYYFGKGTKQWVHARYACDDMEGQLVSIHSPEEQDFLTKHASHTGSWIGLRNLDLKGEFIWVDGSHVDYSNWAPGEPTSRSQGEDCVMMRGSGRWNDAFCDRKLGAWVCDRLATCTPPASEGSAESMGPDSRPDPDGRLPTPSAPLHSGGGGSGGGGSGGGGSGGGGSASISAMVRSPRGPTIKPCPPCKCPAPNLEGGPSVFIFPPKIKDVLMISLSPIVTCVVVDVSEDDPDVQISWFVNNVEVHTAQTQTHREDYNSTLRVVSALPIQHQDWMSGKAFACAVNNKDLPAPIERTISKPKGSVRAPQVYVLPPPEEEMTKKQVTLTCMVTDFMPEDIYVEWTNNGKTELNYKNTEPVLDSDGSYFMYSKLRVEKKNWVERNSYSCSVVHEGLHNHHTTKSFSRTPGK
notes: also called biologic anti-IgE^4
IC50 (read off the curve) (IgE-Fc [2]): ~7 nM

B5: derCD23 (receptor)
chain: SGFVCNTCPEKWINFQRKCYYFGKGTKQWVHARYACDDMEGQLVSIHSPEEQDFLTKHASHTGSWIGLRNLDLKGEFIWVDGSHVDYSNWAPGEPTSRSQGEDCVMMRGSGRWNDAFCDRKLGAWVCDRLATCTPPASEGSAE
notes: also called derCD23 monomer; CD23 monomer
Kd (IgE-Fc [3]): 1820 nM | Kd (IgE-Fc [4]): 1800 nM

B6: hCD23-G4S3-mIgG2a Fc (Fc fusion)
chain: EASDLLERLREEVTKLRMELQVSSGFVCNTCPEKWINFQRKCYYFGKGTKQWVHARYACDDMEGQLVSIHSPEEQDFLTKHASHTGSWIGLRNLDLKGEFIWVDGSHVDYSNWAPGEPTSRSQGEDCVMMRGSGRWNDAFCDRKLGAWVCDRLATCTPPASEGSAESMGPDSRPDPDGRLPTPSAPLHSGGGGSGGGGSGGGGSASISAMVRSPRGPTIKPCPPCKCPAPNLEGGPSVFIFPPKIKDVLMISLSPIVTCVVVDVSEDDPDVQISWFVNNVEVHTAQTQTHREDYNSTLRVVSALPIQHQDWMSGKAFACAVNNKDLPAPIERTISKPKGSVRAPQVYVLPPPEEEMTKKQVTLTCMVTDFMPEDIYVEWTNNGKTELNYKNTEPVLDSDGSYFMYSKLRVEKKNWVERNSYSCSVVHEGLHNHHTTKSFSRTPGK
modifications: here or on the partner: In the flow-cytometry assays the IgE carried AlexaFluor-488 dye at unspecified positions. The letters do not show this.
Extracellular supernatant (IgE remaining prior to buffer change), 1 nM IgE with 0.01 nM biologic, percentage of IgE [1]: 7% | Extracellular supernatant (IgE remaining prior to buffer change), 1 nM IgE with 0.05 nM biologic, percentage of IgE [1]: 4.5% | Extracellular supernatant (IgE remaining prior to buffer change), 1 nM IgE with 0.5 nM biologic, percentage of IgE [1]: 1% | Extracellular supernatant (IgE remaining), 1 nM IgE with 0.01 nM biologic, percentage of IgE [1]: 8% | Extracellular supernatant (IgE remaining), 1 nM IgE with 0.05 nM biologic, percentage of IgE [1]: 5% | Extracellular supernatant (IgE remaining), 1 nM IgE with 0.5 nM biologic, percentage of IgE [1]: 1% | IC50 of inhibition of IgE mediated degranulation [1]: 10 to 30 nM | IgE Intracellular retention, 1 nM IgE with 0.01 nM biologic, percentage of IgE [1]: 92% | IgE Intracellular retention, 1 nM IgE with 0.05 nM biologic, percentage of IgE [1]: 94% | IgE Intracellular retention, 1 nM IgE with 0.5 nM biologic, percentage of IgE [1]: 98% | IgE Intracellular retention, 1 nM IgE with 1 nM biologic, percentage of IgE [1]: 95% | IgE Intracellular retention, 1 nM IgE with 5 nM biologic, percentage of IgE [1]: 93% | IgE Intracellular retention, 1 nM IgE with 50 nM biologic, percentage of IgE [1]: 90% | IgE Intracellular retention, 1 nM IgE with 500 nM biologic, percentage of IgE [1]: 79% | IgE Intracellular retention, 1 nM IgE with 1000 nM biologic, percentage of IgE [1]: 65% | IgE Intracellular retention, 1 nM IgE with 2000 nM biologic, percentage of IgE [1]: 52% | IgE Uptake, 1 nM IgE with 0.01 nM biologic, percentage of IgE [1]: 92% | IgE Uptake, 1 nM IgE with 0.05 nM biologic, percentage of IgE [1]: 95% | IgE Uptake, 1 nM IgE with 0.5 nM biologic, percentage of IgE [1]: 99% | IgE Uptake, 1 nM IgE with 1 nM biologic, percentage of IgE [1]: 100% | IgE Uptake, 1 nM IgE with 5 nM biologic, percentage of IgE [1]: 100% | IgE Uptake, 1 nM IgE with 50 nM biologic, percentage of IgE [1]: 100% | IgE Uptake, 1 nM IgE with 500 nM biologic, percentage of IgE [1]: 100% | IgE Uptake, 1 nM IgE with 1000 nM biologic, percentage of IgE [1]: 100% | IgE Uptake, 1 nM IgE with 2000 nM biologic, percentage of IgE [1]: 100% | efficacy of inhibition of IgE mediated degranulation of basophils [1]: 90%

B7: hCD23-G4S3-mIgG2a Fc (Fc fusion)
chain: EASDLLERLREEVTKLRMELQVSSGFVCNTCPEKWINFQRKCYYFGKGTKQWVHARYACDDMEGQLVSIHSPEEQDFLTKHASHTGSWIGLRNLDLKGEFIWVDGSHVDYSNWAPGEPTSRSQGEDCVMMRGSGRWNDAFCDRKLGAWVCDRLATCTPPASEGSAESMGPDSRPDPDGRLPTPSAPLHSGGGGSGGGGSGGGGSASISAMVRSPRGPTIKPCPPCKCPAPNLEGGPSVFIFPPKIKDVLMISLSPIVTCVVVDVSEDDPDVQISWFVNNVEVHTAQTQTHREDYNSTLRVVSALPIQHQDWMSGKAFACAVNNKDLPAPIERTISKPKGSVRAPQVYVLPPPEEEMTKKQVTLTCMVTDFMPEDIYVEWTNNGKTELNYKNTEPVLDSDGSYFMYSKLRVEKKNWVERNSYSCSVVHEGLHNHHTTKSFSRTPGK
notes: It has two CD23 monomers, paired through the IgG Fc; also called anti-IgE^3; IgE^3
IC50 (read off the curve) (IgE-Fc [2]): ~10 nM
